Experiment [1] has as its system complete Freund's adjuvant (CFA)-induced chronic arthritis. Briefly: CFA arthritis rats, paw volume (plethysmometer). In kind it is in vivo, rat. To be noted: for change of paw volume compared to vehicle-treated arthritic group: E3 1 mg/kg or 911 10 mg/kg i.v. D14+D19, indomethacin 3 mg/kg/day p.o.; for paw volume (mean of right and left hindpaw): arthritic rats. On the procedure: (§1) Five groups of 10 animals (5-weeks old male Lewis rats-LEWIS Lew/Ico, from Charles River Laboratories—Belgium) each were included in this study: Group 1: non arthritic rats/saline (vehicle), i.v. bolus, n=10; Group 2: arthritic rats/saline (vehicle), i.v. bolus, n=10; Group 3: arthritic rats/Indomethacin 3 mg/kg, p.o daily over 10 days, n=10; […]; Group 5: arthritic rats/911, 10 mg/kg, i.v. bolus, n=10. The doses were expressed in terms of free active substance (mg/kg). E3 and 911 were extemporaneously prepared in saline from the stock solution to the desired concentration. […]. All diluted solutions (before i.v. injection) were sterilized using a sterile filter unit of 0.20.μm. pH and osmolarity values of diluted solutions were measured before each i.v. injection. Before the first i.v., osmolarity (mosm/L) for saline, E3, and 911 were 278, 269, and 308 respectively; pH for saline, E3, and 911 were 5.93, 6.76, 6.71 respectively. Before the second i.v., osmolarity (mosm/L) for saline, E3, and 911 were 280, 270, and 309 respectively; pH for saline, E3, and 911 were 5.86, 6.72, and 6.59 respectively.
(§2) E3 or 911 or saline were administered by i.v. bolus injection on Day 14 and Day 19 after arthritis induction in a coded and random order with a volume of 5 mL/kg. The non arthritic group was given by i.v. bolus injection of saline on Day 14 and Day 19 with a volume of 5 mL/kg. Indomethacin was extemporaneously prepared in 1% methylcellulose. Indomethacin was administered by oral route (p.o.) once daily over 10 days from Day 14 to Day 23 after arthritis induction in a coded and random order with a volume of 10 mL/kg.
The right and left hindpaw volume of each rat (arthritic and non arthritic rats) was measured using a plethysmometer. The measurements were performed at the following times (after induction of arthritis): Day 14 (before i.v. bolus or p.o. administration); and Day 24 (5 days after the last i.v. bolus injection or 24 h after the last p.o. administration). All measurements were performed between 9:00 and 12:00 am. All the data were collected and stored by the WinDas software.
(§3) All results were reported as Mean ±S.E.M. of 10 rats in each group at each time point. Paw volume was expressed in ml calculated from the mean value of the right and left paw volume. Arthritis index was calculated from the sum of the score obtained for each of the 4 paws. The nociceptive response was evaluated by the intensity of the level of vocalization recorded for each animal (mean of 4 values: 2 times/paw) in mV. The percentage inhibition of the nociceptive response was calculated from the mean value of the vehicle-treated arthritic group [(mean value of vehicle-treated arthritic group−mean value of treated arthritic group/mean value of vehicle-treated arthritic group)*100]. Body weight was expressed in grams. Hindpaws (left and right) weight was expressed in grams. Cytokine levels (IL-6, IL-1β, TNF-α and TGF-β1) of each hind paw was expressed in pg/ml. Circulating levels of TGF-β1 was expressed in pg/ml. Radiological index for each parameter (demineralization, erosions, periostal reaction, soft tissue damage, space joint, osteogenesis deformity) and total radiological index (total score) were calculated from the sum of the scores obtained for each parameter. The inter-group significances of the deviations between the values of vehicle-treated group (arthritic rats) and vehicle-treated group (non arthritic rats) were assessed by the Student t test or Mann-Whitney Rank Sum Test when equal variance or normality test failed. The inter-group significances of the deviations between the values of vehicle-treated group (arthritic rats) and E3- and 911- and Indomethacin-treated groups were assessed by the 1-way analysis of variance ANOVA followed by the non-paired Dunnett t test. A probability of P<0.05 was considered as significant. All statistical analysis was performed by the Sigmastat™ software.

Experiment [2] shares this test system. Description: CFA-induced chronic arthritis in rats, nociceptive response (vocalization test, Example 8). The format is in vivo, rat. The following applies: for nociceptive response (vocalization): arthritic rats, E3 1 mg/kg or 911 10 mg/kg i.v. D14+D19, indomethacin 3 mg/kg/day p.o. 10 days. The procedure: […]. Analgesic effects of E3 and 911 were evaluated by the measurement of nociceptive response. Anti-inflammatory effects were evaluated by paw volume, arthritis index (inflammation score), body and hindpaws weight. […].
as §1, §2
On Day 0 (D 0), arthritis was induced in 70 rats by intradermal injection into the tail of 0.05 ml of a Mycobacterium butyricum suspension.
The nociceptive response was evaluated by gentle flexion of the right and left hindpaw repeatedly 2 times at intervals of 4 to 5 sec with a finger of the operator (arthritic rats). The intensity of the level of vocalization was recorded for each animal for each hindpaw (2 times: on right hindpaw: s1 and s3; 2 times: on left hindpaw: s2 and s4). This evaluation was performed at the following times (after induction of arthritis): Day 14 (before i.v. bolus or p.o. administration); Day 18 (before the second i.v. bolus injection or 1 hr after p.o. administration); and Day 24 (5 days after the last i.v. bolus injection or 24 h after the last p.o. administration). All measurements were performed between 9:00 and 12:00 am except at D 14 (7:30-9:00 am) and D 24 (7:30-9:00 am).
as §3, with “The inter-group significances of the deviations between the values of vehicle-treated group (arthritic rats) and vehicle-treated group (non arthritic rats) were assessed by the Student t test or Mann-Whitney Rank Sum Test when equal variance or normality test failed. The inter-group significances of the deviations between the values of vehicle-treated group (arthritic rats) and E3- and 911- and Indomethacin-treated groups were assessed by the 1-way analysis of variance ANOVA followed by the non-paired Dunnett t test. A probability of P<0.05 was considered as significant. All statistical analysis was performed by the Sigmastat™ software.” left out

Setting [3] is: E3 1 mg/kg or 911 10 mg/kg i.v. D14+D19, indomethacin 3 mg/kg/day p.o. 10 days, D24.
[4] abbreviates: E3 1 mg/kg or 911 10 mg/kg i.v. D14+D19, indomethacin 3 mg/kg/day p.o., D24.
The mark [5] stands for this setting: E3 1 mg/kg or 911 10 mg/kg i.v., indomethacin 3 mg/kg/day p.o., D14.
[6] abbreviates: E3 1 mg/kg or 911 10 mg/kg i.v., indomethacin 3 mg/kg/day p.o., D18.

For the molecule `COc1ccc2c(c1)c(CC(=O)O)c(C)n2C(=O)c1ccc(Cl)cc1` [Indomethacin, reference compound], the “change of paw volume compared to vehicle-treated arthritic group” value in experiment [1] (D24) was “about −0.75 mL”. The figures for the “paw volume (mean of right and left hindpaw)” value in experiment [1] (D14 (before dosing)) and in experiment [1] (setting [3]) were 2.08 ± 0.06 mL and 1.59 ± 0.03 mL, respectively. The “% inhibition of nociceptive response vs vehicle-treated arthritic group” value came out at 74% in experiment [2] (setting [4]), 0% in experiment [2] (setting [5]) and 71% in experiment [2] (setting [6]). For the same molecule, the figures for the “decrease of nociceptive response vs vehicle-treated arthritic group” value in experiment [2] (setting [4]) and in experiment [2] (setting [6]) were about −4353 mV and “about −3768 mV”, respectively. Moreover, the “nociceptive response (vocalization)” value is given as 4386±235 mV in experiment [2] (D14 (before dosing)), 1511±398 mV in experiment [2] (D18) and 1552±508 mV in experiment [2] (D24).

B1: E3: humanized, affinity matured anti-NGF antagonist antibody; variable regions SEQ ID NO:1 and 2; human IgG2a (A330P331 to S330S331), kappa (antibody, V domains shown)
VH: QVQLQESGPGLVKPSETLSLTCTVSGFSLIGYDLNWIRQPPGKGLEWIGIIWGDGTTDYNSAVKSRVTISKDTSKNQFSLKLSSVTAADTAVYYCARGGYWYATSYYFDYWGQGTLVTVS
VL: DIQMTQSPSSLSASVGDRVTITCRASQSISNNLNWYQQKPGKAPKLLIYYTSRFHSGVPSRFSGSGSGTDFTFTISSLQPEDIATYYCQQEHTLPYTFGQGTKLEIKRT
modifications: human IgG2a constant (A330S/P331S) and kappa constant missing
Take B1: the “change of paw volume compared to vehicle-treated arthritic group” value in experiment [1] (D24) is on record as “about 0.37 mL”. Further, the “paw volume (mean of right and left hindpaw)” value in experiment [1] (D14 (before dosing)) amounted to 2.06 ± 0.03 mL; in experiment [1] (setting [3]), 2.71 ± 0.09 mL. Also, in experiment [2] (E3 1 mg/kg i.v., 911 10 mg/kg i.v., D14+D19), the “analgesic effects in arthritis model (conclusion)” value is “strong analgesic effects”. The figures for the “% inhibition of nociceptive response vs vehicle-treated arthritic group” value in experiment [2] (setting [4]), in experiment [2] (setting [5]) and in experiment [2] (setting [6]) were 100%, 0% and 79%, respectively. Further, the “decrease of nociceptive response vs vehicle-treated arthritic group” value in experiment [2] (setting [4]) is listed as about −5905 mV; in experiment [2] (setting [6]), “about −4167 mV”. The entries for the “nociceptive response (vocalization)” value in experiment [2] (D14 (before dosing)), in experiment [2] (D18) and in experiment [2] (D24) were 4644±367 mV, 1112±401 mV and 0±0 mV, respectively.

Source of the values: patent US20080182978A1, “ANTI-NGF ANTIBODIES AND METHODS USING SAME” (RINAT NEUROSCIENCE CORP, priority 2002, published 2008).
